# From US8026218 (UNIVERSITY OF ARIZONA, dated 2011)
# Read-outs that look alike come from different tables or passages of the source. Bridge positions count the residues as written; N and C are the ends. Square brackets hold non-standard residues; d marks the D form. Ends that are not written are not given here. * marks the point of attachment. O‑Bzl(CF3)2 = C-terminal bis(trifluoromethyl)benzyl ester; NH(3,5-(CF3)2-benzyl) = FC(F)(F)c1cc(CN*)cc(C(F)(F)F)c1; OBzl(3,5-(CF3)2) = FC(F)(F)c1cc(CO*)cc(C(F)(F)F)c1; Phe(4-F) = N[C@@H](Cc1ccc(F)cc1)C(=O)O; Nle = CCCC[C@H](N)C(=O)O
# How the values were obtained:
# [1] = target: T1, µ opioid receptor of the guinea pig isolated ileum (guinea pig, UniProt P97266 1-98); test: cell-based or functional assay
# T1 sequence (P97266 whole entry): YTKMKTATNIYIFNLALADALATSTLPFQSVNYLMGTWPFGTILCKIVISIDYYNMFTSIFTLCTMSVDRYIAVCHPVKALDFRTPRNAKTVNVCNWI
# [2] = target: T1, µ opioid receptor of the guinea pig …; test: cell-based or functional assay; remark: listed apart in the source
# human δ opioid receptor [3] = target: T2, human δ opioid receptor (human, UniProt P41143 1-372); test: cell-based or functional assay
# T2 sequence (P41143 whole entry, stated change not applied): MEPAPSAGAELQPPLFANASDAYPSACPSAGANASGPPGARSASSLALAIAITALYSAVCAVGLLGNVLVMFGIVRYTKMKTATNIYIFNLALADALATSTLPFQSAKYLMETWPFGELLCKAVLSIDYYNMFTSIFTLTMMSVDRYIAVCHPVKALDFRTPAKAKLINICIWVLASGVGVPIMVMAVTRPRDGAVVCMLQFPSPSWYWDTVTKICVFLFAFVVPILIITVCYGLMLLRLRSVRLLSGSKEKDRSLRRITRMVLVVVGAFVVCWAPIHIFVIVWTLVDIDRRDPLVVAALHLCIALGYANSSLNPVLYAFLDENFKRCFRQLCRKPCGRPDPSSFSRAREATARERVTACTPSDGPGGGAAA
# rat µ opioid receptor [4] = target: T3, rat µ opioid receptor (rat, UniProt P33535 1-398); test: cell-based or functional assay
# T3 sequence (P33535 whole entry): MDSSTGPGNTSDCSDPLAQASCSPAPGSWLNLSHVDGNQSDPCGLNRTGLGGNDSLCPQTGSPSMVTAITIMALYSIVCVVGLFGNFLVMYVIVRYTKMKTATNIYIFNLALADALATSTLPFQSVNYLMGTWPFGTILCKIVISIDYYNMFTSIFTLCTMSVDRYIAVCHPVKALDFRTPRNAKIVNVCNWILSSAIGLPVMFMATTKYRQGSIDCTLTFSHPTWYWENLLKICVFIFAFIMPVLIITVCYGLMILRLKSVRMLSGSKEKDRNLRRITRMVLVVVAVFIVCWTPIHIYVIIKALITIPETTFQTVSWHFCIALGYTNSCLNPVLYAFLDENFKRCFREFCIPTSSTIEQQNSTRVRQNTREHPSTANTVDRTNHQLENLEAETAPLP
# human δ opioid receptor [5] = target: T2, human δ opioid receptor; test: competition vs [3H]DPDPE, membranes of hDOR-transfected HN9.10 cells
# [6] = target: µ opioid receptor of the guinea pig isolated ileum (guinea pig); test: cell-based or functional assay
# guinea pig NK1 receptor [7] = target: guinea pig NK1 receptor (guinea pig, UniProt P30547 1-407); test: cell-based or functional assay
# Target sequence in this assay (P30547 whole entry): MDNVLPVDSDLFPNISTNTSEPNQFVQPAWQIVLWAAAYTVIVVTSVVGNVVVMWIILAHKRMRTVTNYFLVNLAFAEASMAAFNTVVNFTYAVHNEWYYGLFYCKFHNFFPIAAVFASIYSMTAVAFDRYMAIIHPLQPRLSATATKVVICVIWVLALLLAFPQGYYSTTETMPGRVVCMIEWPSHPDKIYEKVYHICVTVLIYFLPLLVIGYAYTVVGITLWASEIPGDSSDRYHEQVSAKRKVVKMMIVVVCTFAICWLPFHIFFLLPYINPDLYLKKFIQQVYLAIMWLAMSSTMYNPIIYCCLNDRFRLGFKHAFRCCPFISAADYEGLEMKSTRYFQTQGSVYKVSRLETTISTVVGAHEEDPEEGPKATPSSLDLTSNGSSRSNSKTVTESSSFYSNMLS
# human δ opioid receptor [8] = target: T2, human δ opioid receptor; test: competition vs [3H]DPDPE, membranes of hDOR-transfected HN9.10 cells; remark: listed apart in the source
# human δ opioid receptor [9] = target: T2, human δ opioid receptor; test: cell-based or functional assay; remark: listed apart in the source
# rat µ opioid receptor [10] = target: T3, rat µ opioid receptor; test: cell-based or functional assay; remark: listed apart in the source
# rat NK1 receptor [11] = target: T4, rat NK1 receptor (rat, UniProt P14600 1-407); test: competition vs [3H]substance P, membranes of rNK1-transfected CHO cells
# T4 construct: whole, on cells; Assayed as membrane preparations of transfected CHO cells; also called rNK1; rNK-1
# T4 sequence (P14600 whole entry): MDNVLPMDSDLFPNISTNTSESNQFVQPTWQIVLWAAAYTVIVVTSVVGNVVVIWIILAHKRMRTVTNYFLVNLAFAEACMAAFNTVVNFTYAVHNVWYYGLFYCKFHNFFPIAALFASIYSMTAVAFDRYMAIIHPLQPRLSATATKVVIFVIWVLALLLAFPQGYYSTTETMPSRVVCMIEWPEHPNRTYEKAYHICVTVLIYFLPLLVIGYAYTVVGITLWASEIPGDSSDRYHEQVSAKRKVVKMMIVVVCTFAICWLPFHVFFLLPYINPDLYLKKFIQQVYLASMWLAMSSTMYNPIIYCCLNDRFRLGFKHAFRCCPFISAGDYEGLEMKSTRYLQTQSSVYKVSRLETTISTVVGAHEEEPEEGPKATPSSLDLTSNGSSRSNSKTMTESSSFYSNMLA
# rat NK1 receptor [12] = target: T4, rat NK1 receptor; test: as above; remark: listed apart in the source
# rat µ opioid receptor [13] = target: T3, rat µ opioid receptor; test: competition vs [3H]DAMGO, membranes of rMOR-transfected HN9.10 cells
# human δ opioid receptor [14] = target: T2, human δ opioid receptor; test: ratio of Ki at rMOR to Ki at hDOR
# [15] = target: µ opioid receptor of the guinea pig isolated ileum (guinea pig, UniProt P97266 1-98); test: cell-based or functional assay; remark: listed apart in the source
# Target sequence in this assay (P97266 whole entry): as the sequence (P97266 whole entry) above
# guinea pig NK1 receptor [16] = target: guinea pig NK1 receptor (guinea pig, UniProt P30547 1-407); test: cell-based or functional assay; remark: listed apart in the source
# Target sequence in this assay (P30547 whole entry): as the sequence (P30547 whole entry) above
# human δ opioid receptor [17] = target: T5, human δ opioid receptor (human, UniProt P41143 1-372); test: competition vs [3H]DPDPE, hDOR cell membranes
# T5 construct: whole, on cells; membrane preparations of the transfected cells were used; also called hDOR; DOR
# T5 sequence (P41143 whole entry, stated change not applied): as the sequence (P41143 whole entry, stated change not applied) above
# rat µ opioid receptor [18] = target: T6, rat µ opioid receptor (rat, UniProt P33535 1-398); test: competition vs [3H]DAMGO, rMOR cell membranes
# T6 construct: whole, on cells; membrane preparations of the transfected cells were used; also called rMOR; MOR
# T6 sequence (P33535 whole entry): as the sequence (P33535 whole entry) above
# human δ opioid receptor [19] = target: T5, human δ opioid receptor; test: cell-based or functional assay; remark: listed apart in the source
# human NK1 receptor [20] = target: T7, human NK1 receptor (human, UniProt P25103 1-407); test: competition vs [3H]Substance P, hNK1 CHO cell membranes
# T7 construct: whole, on cells; membrane preparations of the transfected cells were used; also called hNK1; human neurokinin-1 receptor
# rat NK1 receptor [21] = target: T8, rat NK1 receptor (rat, UniProt P14600 1-407); test: competition vs [3H]Substance P, rNK1 CHO cell membranes
# T8 construct: whole, on cells; membrane preparations of the transfected cells were used; also called rNK1; rNK-1
# T8 sequence (P14600 whole entry): as the sequence (P14600 whole entry) above
# human NK1 receptor [22] = target: T7, human NK1 receptor; test: competition vs [3H]Substance P, hNK1 CHO cell membranes; remark: listed apart in the source
# human δ opioid receptor [23] = target: T5, human δ opioid receptor; test: competition vs [3H]DPDPE, hDOR cell membranes; remark: listed apart in the source
# T7 sequence (P25103 whole entry): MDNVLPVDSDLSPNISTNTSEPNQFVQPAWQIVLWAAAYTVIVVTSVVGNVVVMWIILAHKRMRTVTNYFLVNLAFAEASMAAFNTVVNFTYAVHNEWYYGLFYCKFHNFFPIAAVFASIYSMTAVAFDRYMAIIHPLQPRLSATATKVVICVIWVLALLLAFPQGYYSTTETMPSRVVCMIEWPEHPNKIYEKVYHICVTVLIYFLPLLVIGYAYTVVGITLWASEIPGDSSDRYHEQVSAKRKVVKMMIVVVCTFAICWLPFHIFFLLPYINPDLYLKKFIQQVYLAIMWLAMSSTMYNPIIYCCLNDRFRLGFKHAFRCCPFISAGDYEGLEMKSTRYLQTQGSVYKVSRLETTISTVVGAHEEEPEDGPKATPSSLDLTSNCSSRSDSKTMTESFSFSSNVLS
binder,measurement,setting,value
"Y[dA]GW-{OBzl(3,5-(CF3)2)} [Tyr-D-Ala-Gly-Trp-O-3′,5′(CF3)2-Bzl (NP44)]",GPI µ-agonist IC50,[1],844 nM
Y[dA]GFLW-{O‑Bzl(CF3)2} [Tyr-DAla-Gly-Phe-Leu-Trp-O-Bzl(CF3)2 (NP37)],GPI/LMMP µ-agonist IC50,[2],45.4 nM
"Y[dA]G[Phe(4-F)]-{OBzl(3,5-(CF3)2)} [Tyr-D-Ala-Gly-pFPhe-O-3′,5′(CF3)2-Bzl (NP62)]",GPI µ-agonist IC50,[1],208 nM
"H-Y[dA]GFMPLW-{OBzl(3,5-(CF3)2)} (also: TFA salt, TFA salt; also called TY005; TY5) [H-Tyr-D-Ala-Gly-Phe-Met-Pro-Leu-Trp-O-3,5-Bzl(CF3)2]",[35S]GTP-γ-S binding EC50,human δ opioid receptor [3],2.9 nM
same,[35S]GTP-γ-S binding Emax,human δ opioid receptor [3],51%
same,[35S]GTP-γ-S binding LogEC50,human δ opioid receptor [3],-8.54
same,[35S]GTP-γ-S binding Emax,rat µ opioid receptor [4],45%
same,Ki,human δ opioid receptor [5],2.8 nM
same,GPI (µ) opioid agonist IC50,[6],359 nM
same,Substance P GPI antagonist Ke,guinea pig NK1 receptor [7],24.7 nM
same,Ki,human δ opioid receptor [8],2.8 nM
same,LogIC50,human δ opioid receptor [8],-8.22
same,[35S]GTPγS binding EC50,human δ opioid receptor [9],2.9 nM
same,[35S]GTPγS binding Emax,human δ opioid receptor [9],48%
same,[35S]GTPγS binding LogEC50,human δ opioid receptor [9],-8.5
same,[35S]GTPγS binding Emax,rat µ opioid receptor [10],46%
same,Ki,rat NK1 receptor [11],0.29 nM
same,LogIC50,rat NK1 receptor [11],-9
same,IC50,rat NK1 receptor [12],6.4 nM
same,LogIC50,rat NK1 receptor [12],-8.22
"H-Y[dA]GFGPLW-{OBzl(3,5-(CF3)2)} (also: TFA salt, TFA salt; also called TY006) [H-Tyr-D-Ala-Gly-Phe-Gly-Pro-Leu-Trp-O-3,5-Bzl(CF3)2]",Ki,rat µ opioid receptor [13],27 nM
same,LogIC50,rat µ opioid receptor [13],-7.24
same,[35S]GTP-γ-S binding EC50,human δ opioid receptor [3],50.2 nM
same,[35S]GTP-γ-S binding Emax,human δ opioid receptor [3],35%
same,[35S]GTP-γ-S binding LogEC50,human δ opioid receptor [3],-7.3
same,[35S]GTP-γ-S binding EC50,rat µ opioid receptor [4],41.7 nM
same,[35S]GTP-γ-S binding Emax,rat µ opioid receptor [4],39%
same,[35S]GTP-γ-S binding LogEC50,rat µ opioid receptor [4],-7.38
same,Ki(µ)/Ki(δ),human δ opioid receptor [14],0.75
same,GPI (µ) opioid agonist IC50,[6],384 nM
same,"Substance P GPI agonist (A50), contraction relative to KCl",guinea pig NK1 receptor [7],0 % at 1 µM
same,Substance P GPI antagonist Ke,guinea pig NK1 receptor [7],5.4 nM
same,Ki,human δ opioid receptor [8],36.1 nM
same,LogIC50,human δ opioid receptor [8],-7.11
same,IC50,rat NK1 receptor [12],15.6 nM
same,LogIC50,rat NK1 receptor [12],-7.83
"H-Y[dA]GF[dF]PLW-{OBzl(3,5-(CF3)2)} (also: TFA salt, TFA salt; also called TY007) [H-Tyr-D-Ala-Gly-Phe-D-Phe-Pro-Leu-Trp-O-3,5-Bzl(CF3)2]",Ki,rat µ opioid receptor [13],381 nM
same,LogIC50,rat µ opioid receptor [13],-6.09
same,[35S]GTP-γ-S binding EC50,human δ opioid receptor [3],16.8 nM
same,[35S]GTP-γ-S binding Emax,human δ opioid receptor [3],26%
same,[35S]GTP-γ-S binding LogEC50,human δ opioid receptor [3],-7.78
same,[35S]GTP-γ-S binding EC50,rat µ opioid receptor [4],345 nM
same,[35S]GTP-γ-S binding Emax,rat µ opioid receptor [4],22%
same,[35S]GTP-γ-S binding LogEC50,rat µ opioid receptor [4],-6.46
same,Ki(µ)/Ki(δ),human δ opioid receptor [14],4.1
same,"GPI (µ) opioid agonist, % at 1 µM",[6],9 % at 1 µM
same,"Substance P GPI agonist (A50), contraction relative to KCl",guinea pig NK1 receptor [7],0 % at 1 µM
same,Substance P GPI antagonist Ke,guinea pig NK1 receptor [7],69.6 nM
same,Ki,human δ opioid receptor [8],93 nM
same,LogIC50,human δ opioid receptor [8],-6.7
same,IC50,rat NK1 receptor [12],66.7 nM
same,LogIC50,rat NK1 receptor [12],-7.22
"Y[dC]GF[Nle]PCW-{NH(3,5-(CF3)2-benzyl)} (disulfide 2-7, cyclic; also called TY035; [D-Cys2, Cys7]TY027) [Tyr[DCysGlyPheNleProCys]TrpNHBn(CF3)2]",GPI (µ) IC50,[15],1000 nM
same,GPI Substance P antagonist Ke,guinea pig NK1 receptor [16],2.2 nM
same,Ki,human δ opioid receptor [17],1.3 nM
same,LogIC50,human δ opioid receptor [17],-8.6
same,Ki,rat µ opioid receptor [18],79 nM
same,LogIC50,rat µ opioid receptor [18],-6.8
same,[35S]GTPγS binding EC50,human δ opioid receptor [19],0.02 nM
same,[35S]GTPγS binding Emax,human δ opioid receptor [19],11%
same,[35S]GTPγS binding LogEC50,human δ opioid receptor [19],-10.8
same,Ki,human NK1 receptor [20],0.1 nM
same,LogIC50,human NK1 receptor [20],-9.7
same,LogIC50,rat NK1 receptor [21],-7
"YAGFXPLW (Dmt at 1 (written Y); D-Ala at 2; Nle at 5 (written X); C-terminal NMe-3,5-Bzl(CF3)2 amide, also called TY052) [DmtDAlaGlyPheNleProLeuTrpNMeBn(CF3)2]",Ki,human NK1 receptor [22],0.21 nM
same,Ki,human δ opioid receptor [23],0.46 nM
